Data from patent US20090035266A1.

Target: HLA-A2 molecules on T2 cells (human)
Test: T2 cell HLA-A2 upregulation assay, flow cytometry, peptide 25 µg/ml; negative control
Settings: remark: other sources report otherwise

Binder: HLFGYSWYK [CAP-7 peptide]
- T2 binding (MFI): 260 MFI
